Paper PMC8248988, “A signal capture and proofreading mechanism for the KDEL-receptor explains selectivity and dynamic range in ER retrieval” (eLife, 2021)
Ends that are not written are not given here.

Tests used:
[1] = molecular target: T1, TAERDEL retrieval signal peptide; test: peptide binding assay
T1 chain: TAERDEL

[2] = molecular target: T2, TAEDDEL retrieval signal peptide; test: peptide binding assay
T2 chain: TAEDDEL

[3] = molecular target: T3, TAEHDEL retrieval signal peptide; test: [3H]-peptide filter binding assay
T3 chain: TAEHDEL

[4] = molecular target: T4, TAEKDEL retrieval signal peptide (BiP) (Homo sapiens); test: [3H]-peptide filter binding assay
T4 chain: TAEKDEL

[5] = molecular target: T3, TAEHDEL retrieval signal peptide; test: competition binding with [3H]-TAEHDEL
[6] = molecular target: T5, TAEHDEL-CONH retrieval signal peptide; test: competition binding with [3H]-TAEHDEL
T5 chain: TAEHDEL-NH2

[7] = molecular target: T3, TAEHDEL retrieval signal peptide; test: [3H]-peptide filter binding assay, pH 5.4
[8] = molecular target: T4, TAEKDEL retrieval signal peptide (BiP); test: [3H]-peptide filter binding assay, pH 5.4

Kd [1]: 2.71 µM | Kd [2]: 14.9 µM | Kd [3]: 0.24 µM | Kd [4]: 1.94 µM | IC50 [5]: 19 µM | IC50 [6]: 1700 µM | Kd [7]: 0.26 µM | Kd [8]: 1.9 µM
B1: KDEL receptor 2 (protein)
chain: MNIFRLTGDLSHLAAIIILLLKIWKSRSCAGISGKSQLLFALVFTTRYLDLFTSFISLYNTSMKLIYIACSYATVYLIYMKFKATYDGNHDTFRVEFLIVPVGGLSFLVNHDFSPLEILWTFSIYLESVAILPQLFMISKTGEAETITTHYLFFLGLYRALYLVNWIWRYYFEGFFDLIAVVAGVVQTVLYCDFFYLYVTKVLKGKKLSLPA
